Experimental data: patent US20120276102A1 (Pfizer, published 2012)
Substitutions are numbered along the chain they refer to.

B1: scFv H3 (scFv)
scFv: QVQLQESGPGLVKTSETLSLTCAVSGYSISSGYYWGWIRQPPGKGLEWIGSISHTGNTYYNPPLKSRVTISVDTSKNQFSLKLSSVTAADTAVYYCARFMGFGRPEYWGKGTLVTVSSGGGGSGGGGSGGGGSALSSELTQDPPVSVALGQTVTLTCQGDSLRTYYASWYQQKSGQAPILLLYGKHKRPSGIPDRFSGSTSGDTASLTITGAQAEDEADYYCNSRDSSGNPHVLFGGGTQLTVL
B2: scFv H4 (scFv)
scFv: B1 scFv with F99W, M100L
B3: scFv L21 (scFv)
scFv: B1 scFv with F99G, M100G, F102I, G103S, N223A, S224T, D226A, S227V, S228R
B4: scFv L1 (scFv)
scFv: B1 scFv with F99G, M100G, F102I, G103S, N223A, D226S, S227V
B5: scFv L20 (scFv)
scFv: B1 scFv with F99G, M100G, F102I, G103S, N223V, D226S, S227A, S228K
B6: scFv L18 (scFv)
scFv: B1 scFv with F99G, M100G, F102I, G103S, N223V, S224T, D226S, S227V, S228K
B7: scFv L13 (scFv)
scFv: B1 scFv with F99G, M100G, F102I, G103S, N223V, S224T, D226N, S227R, S228Y
B8: scFv L24 (scFv)
scFv: B1 scFv with F99G, M100G, F102I, G103S, N223I, S224A, D226S, S227N, S228K
B9: scFv L15 (scFv)
scFv: B1 scFv with F99G, M100G, F102I, G103S, N223S, S224T, D226A, S227I, S228H
B10: scFv L6 (scFv)
scFv: B1 scFv with F99G, M100G, F102I, G103S, N223M, D226S, S227I, S228W
B11: scFv H6 (scFv)
scFv: B1 scFv with M100F
B12: scFv L14 (scFv)
scFv: B1 scFv with F99G, M100G, F102I, G103S, N223M, S224A, D226S, S227R, S228K
B13: scFv L2 (scFv)
scFv: B1 scFv with F99G, M100G, F102I, G103S, N223V, S224A, D226S, S227V, S228V
B14: scFv H5 (scFv)
scFv: B1 scFv with M100L
B15: scFv L12 (scFv)
scFv: B1 scFv with F99G, M100G, F102I, G103S, N223V, S224A, D226G, S227T, S228R
B16: scFv L16 (scFv)
scFv: B1 scFv with F99G, M100G, F102I, G103S, N223V, S224T, D226S, S227A, S228K
B17: scFv L10 (scFv)
scFv: B1 scFv with F99G, M100G, F102I, G103S, N223I, D226S, S227I, S228Y
B18: scFv L4 (scFv)
scFv: B1 scFv with F99G, M100G, F102I, G103S, N223S, S224T, D226S, S228K
B19: scFv L11 (scFv)
scFv: B1 scFv with F99G, M100G, F102I, G103S, N223S, D226S, S227R, S228H
B20: scFv L19 (scFv)
scFv: B1 scFv with F99G, M100G, F102I, G103S, N223V, S224A, D226A, S227V, S228R
B21: scFv L17 (scFv)
scFv: B1 scFv with F99G, M100G, F102I, G103S, N223S, S224T, D226S, S227R, S228K
B22: scFv L23 (scFv)
scFv: B1 scFv with F99G, M100G, F102I, G103S, N223S, S224A, D226S, S227V, S228R
B23: scFv L8 (scFv)
scFv: B1 scFv with F99G, M100G, F102I, G103S, N223T, S224T, D226S, S227T, S228Q
B24: scFv L25 (scFv)
scFv: B1 scFv with F99G, M100G, F102I, G103S, N223T, S224T, D226S, S227N, S228K
B25: scFv L3 (scFv)
scFv: B1 scFv with F99G, M100G, F102I, G103S, N223V, D226A, S227V, S228V
B26: scFv L9 (scFv)
scFv: B1 scFv with F99G, M100G, F102I, G103S, N223V, S224A, D226S, S227N, S228K
B27: scFv L5 (scFv)
scFv: B1 scFv with F99G, M100G, F102I, G103S, N223A, D226S, S228K

Each binder was assayed against human IL-21R expressed on cells (human, UniProt Q9HBE5 20-538) (assay: cell-based or functional assay).
human IL-21R expressed on cells, sequence (Q9HBE5 20-538 limits assumed): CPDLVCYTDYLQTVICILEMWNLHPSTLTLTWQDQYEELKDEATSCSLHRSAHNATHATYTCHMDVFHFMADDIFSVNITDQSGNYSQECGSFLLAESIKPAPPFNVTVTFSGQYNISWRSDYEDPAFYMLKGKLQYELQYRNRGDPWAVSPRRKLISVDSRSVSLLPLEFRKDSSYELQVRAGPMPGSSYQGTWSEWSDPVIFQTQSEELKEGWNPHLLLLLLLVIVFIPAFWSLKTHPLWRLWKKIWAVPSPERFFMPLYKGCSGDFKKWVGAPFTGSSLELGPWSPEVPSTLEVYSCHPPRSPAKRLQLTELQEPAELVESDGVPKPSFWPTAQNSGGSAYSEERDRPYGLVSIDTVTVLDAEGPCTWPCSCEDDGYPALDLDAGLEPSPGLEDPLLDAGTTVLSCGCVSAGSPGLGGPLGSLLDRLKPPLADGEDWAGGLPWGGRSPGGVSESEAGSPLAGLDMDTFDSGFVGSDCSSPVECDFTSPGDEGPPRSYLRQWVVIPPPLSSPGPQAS

| Binder | IC50, Human IL-21R-BaF3 Neutralization Assay [nM] | IC50, Human IL-21R-TF1 Neutralization Assay [nM] |
| --- | --- | --- |
| B1 | 7.7 | 98.1 |
| B2 | 3.8 | 9.3 |
| B3 | 9.4 | ~100 |
| B4 | 3.7 | ~55 |
| B5 | 3.1 | 57.5 |
| B6 | 3.7 | 54.4 |
| B7 | 11 | 257 |
| B8 | 2.4 | 18.7 |
| B9 | 3.3 | 30.3 |
| B10 | 5.9 | ~150 |
| B11 | 13.8 | ~150 |
| B12 | 3.2 | 33.5 |
| B13 | 3.1 | 37.5 |
| B14 | 7.9 | 178 |
| B15 | 2.6 | 54.9 |
| B16 | 3.7 | 67.4 |
| B17 | 15.1 | 7 |
| B18 | 2.1 | ~60 |
| B19 | 4.2 | 38.3 |
| B20 | 4.5 | 35.3 |
| B21 | 1.6 | 60.3 |
| B22 | 1.5 | 15.3 |
| B23 | 4.1 | 51.3 |
| B24 | 3.7 | 33.1 |
| B25 | 27.6 | ~7 |
| B26 | 2.8 | 27.7 |
| B27 | 2.1 | ~20 |

These binders were tested against murine IL-21R expressed on cells (murine, UniProt Q9JHX3 20-529) (assay: cell-based or functional assay).

| Binder | IC50, Murine IL-21R-BaF3 Neutralization Assay [nM] |
| --- | --- |
| B1 | 25.7 |
| B3 | 162 |
| B4 | 28.8 |
| B5 | 15.4 |
| B6 | 8.34 |
| B7 | 1.25 |
| B8 | 3.73 |
| B9 | 53.5 |
| B10 | 0.29 |
| B12 | 6.49 |
| B13 | 2.41 |
| B14 | 53.7 |
| B15 | 87.8 |
| B16 | 4.71 |
| B19 | 10 |
| B20 | 13.6 |
| B21 | 2.66 |
| B23 | 715 |
| B24 | 15.6 |
| B25 | 13.8 |
| B26 | 3.61 |
| B27 | 38.5 |

These binders were tested against T1, murine IL-21R extracellular domain His-Flag fusion protein (murine, UniProt Q9JHX3 20-237) (assay: competition ELISA; competitor plate-bound 18A5 IgG).
T1 construct: Biotinylated in the ELISAs; also called mIL-21R-H/F; murine IL-21R-H/F
Experimental: Blocked plates were washed 3× with PBS, and 50 μl/well of scFv/IL-21R mixtures were transferred to the appropriate plates and incubated for 1 hr at RT. Plates were washed 5× with PBS prior to the addition of a 1:6000 dilution of horseradish peroxidase-conjugated streptavidin (Southern Biotech, Birmingham, Ala.) secondary antibody to detect bound biotinylated mIL-21R-H/F. Plates were then incubated for 1 hr at RT and washed 7× with PBS. Signal was developed using 3,3′,5,5′-tetramethylbenzidine (TMB), the reaction stopped with H₂SO₄, and the absorbance read at 450 nm on an ENVISION™ plate reader (Perkin Elmer).

| Binder | IC50 [nM] |
| --- | --- |
| B1 | 14 |
| B3 | 28 |
| B4 | 7 |
| B5 | 5 |
| B6 | 8 |
| B7 | 7 |
| B8 | 6 |
| B9 | 14 |
| B10 | 4 |
| B11 | 13 |
| B12 | 6 |
| B13 | 5 |
| B14 | 17 |
| B15 | 8 |
| B16 | 6 |
| B17 | 40 |
| B18 | 8 |
| B19 | 6 |
| B20 | 15 |
| B21 | 12 |
| B22 | 12 |
| B23 | 7 |
| B24 | 9 |
| B25 | 100 |
| B26 | 7 |
| B27 | 7 |
